Here are results for 4 molecules from patent US20200165308A1 (UNIVERSITY OF MANITOBA, published 2020).

Experiment [1] deals with T1, extracellular domains of UNC5h2 (CAD32251, aa: 25-374) (Mus musculus, UniProt Q8K1S3 25-374).
T1 construct: also called UNC5h2 full-length ectodomain; not shown: C-terminal double Strep-tag II
The experiment is described as follows: solid-phase binding.

For experiment [2], the target named is T2, Netrin-1 (NET1) from Mus musculus lacking the C-terminal domain (NP_032770, aa: 24-457) (Mus musculus, UniProt O09118 24-457). As to the kind of experiment: solid-phase binding.
Experiment [3] has as its target T2, Netrin-1 (NET1) from Mus musculus …. The experiment is described as follows: solid-phase binding, NEO1 immobilized.

B1: NET1 with the eight loop a/b residues 348RRCRFNME355 replaced by the equivalent residues from NET4 (339DTCHFDVN346) (ligand)
chain: not shown
notes: C350 and F352 are the same in both; also called NET1/NET4 loop a/b swap
As to B1, in experiment [1], the “fold drop in affinity against wild type NET1” value came to 50 fold.

B2: UNC5h2 IgG1 (CAD32251, aa: 52-153) (receptor)
chain: not shown
notes: also called Ig1; Ig1 domain of UNC5h2; not shown: C-terminal double Strep-tag II
As for B2, the binding result in experiment [2] was “binds”.

B3: UNC5h2 IgG2 (CAD32251, aa: 154-245) (receptor)
chain: not shown
notes: also called Ig2; Ig2 domain of UNC5h2; not shown: C-terminal double Strep-tag II
As for B3, the binding result in experiment [2] is on record as “no binding”.

B4: full-length ectodomain of NEO1 (AAH54540, aa: 41-1107) (receptor)
chain: GAAATKSGSPPQSAGASVRTFTPFYFLVEPVDTLSVRGSSVILNCSAYSEPSPNIEWKKDGTFLNLESDDRRQLLPDGSLFISNVVHSKHNKPDEGFYQCVATVDNLGTIVSRTAKLTVAGLPRFTSQPEPSSVYVGNSAILNCEVNADLVPFVRWEQNRQPLLLDDRIVKLPSGTLVISNATEGDGGLYRCIVESGGPPKFSDEAELKVLQDPEEIVDLVFLMRPSSMMKVTGQSAVLPCVVSGLPAPVVRWMKNEEVLDTESSGRLVLLAGGCLEISDVTEDDAGTYFCIADNGNKTVEAQAELTVQVPPGFLKQPANIYAHESMDIVFECEVTGKPTPTVKWVKNGDVVIPSDYFKIVKEHNLQVLGLVKSDEGFYQCIAENDVGNAQAGAQLIILEHDVAIPTLPPTSLTSATTDHLAPATTGPLPSAPRDVVASLVSTRFIKLTWRTPASDPHGDNLTYSVFYTKEGVARERVENTSQPGEMQVTIQNLMPATVYIFKVMAQNKHGSGESSAPLRVETQPEVQLPGPAPNIRAYATSPTSITVTWETPLSGNGEIQNYKLYYMEKGTDKEQDIDVSSHSYTINGLKKYTEYSFRVVAYNKHGPGVSTQDVAVRTLSDVPSAAPQNLSLEVRNSKSIVIHWQPPSSTTQNGQITGYKIRYRKASRKSDVTETLVTGTQLSQLIEGLDRGTEYNFRVAALTVNGTGPATDWLSAETFESDLDETRVPEVPSSLHVRPLVTSIVVSWTPPENQNIVVRGYAIGYGIGSPHAQTIKVDYKQRYYTIENLDPSSHYVITLKAFNNVGEGIPLYESAVTRPHTVPDPTPMMPPVGVQASILSHDTIRITWADNSLPKHQKITDSRYYTVRWKTNIPANTKYKNANATTLSYLVTGLKPNTLYEFSVMVTKGRRSSTWSMTAHGATFELVPTSPPKDVTVVSKEGKPRTIIVNWQPPSEANGKITGYIIYYSTDVNAEIHDWVIEPVVGNRLTHQIQELTLDTPYYFKIQARNSKGMGPMSEAVQFRTPKALGSAGKGSRLPDLGSDYKPPMSGSNSPHGSPTSPLDSN
notes: also called neogenin; NEO1 full-length ectodomain; not shown: C-terminal double Strep-tag II
As for B4, in experiment [3], the binding result is “binds”.
